# Measurements: patent publication US6919086B1, “Graminae pollen allergen mutants for specific immunotherapy, and production and use of the same” (Merck Patent Gesellschaft mit, priority 1997, dated 2005)
# Entries after “also recorded” stand apart in the source; their conditions may differ. Where two headings read alike, the source gives them in different places.
# B1: DM1: deletion mutant of rPhl p 5b (ΔK50-P132, D49→L), SEQ ID NO 91 (protein)
# chain: ADAGYAPATPAAAGAAAGKATTEEQKLIEDINVGFKAAVAAAASVPAALAGELQIIDKIDAAFKVAATAAATAPADDKFTVFEAAFNKAIKESTGGAYDTYKCIPSLEAAVKQAYAATVAAAPQVKYAVFEAALTKAITAMSEVQKVSQPATGAATVAAGAATTAAGAASGAATVAAGGYKV
# Assays:
# [1] = tested on: Phl p 5b-reactive T cell clones (TCCs) from allergic patients; test: Proliferative reaction of Phl p 5b-reactive T cell clones ([3H]-thymidine incorporation); format: cell-based, human; conditions: final concentration 0.3 μM
# Protocol: (§1) 40 ml of heparinized blood were obtained from each patient. Peripheral mononuclear cells (PBMC) were then isolated from this blood sample by means of the customary method using density gradient centrifugation. Analogous cell isolations were carried out at a later stage when it was necessary to obtain irradiated autologous antigen-presenting cells (APC) for characterizing the TCL and TCC further. After the PBMC had been counted, TCL which reacted to group 5 allergens in vitro were established as follows and as has already been described in detail elsewhere (Lit. 1): in each well of 24-well microculture plates, from 1.5 to 2.0×10^6 PBMC in 1 ml of culture medium (UltraCulture) were stimulated for 7 days in the added presence of natural Phl p5 allergens (in each case 10 μg/well) which had been purified by immunoaffinity chromatography. A total of from 8 to 10 of these cultures were set up. The isolation of Phl p5 by means of immunoaffinity chromatography has been described in detail (Lit. 2). At the end of the 7 days of culture, IL-2 (from 10 to 20 IU/well) was added to the cell cultures for a further 5 to 7 days. All the individual cultures were then pooled and the T cell blasts were enriched by means of density gradient centrifugation; the TCL which were obtained were then tested in a specific lymphocyte proliferation test (see Lit. 1 as well). For this, 2×10^4/ml TCL blasts were in each case cultured with 5×10^4/ml irradiated autologous APCs in triplicate samples in 96-well microculture plates. 10-20 μg of Phl p5 allergen were added as the specific antigen stimulus. After 56 hours of incubation, ^3H-labelled thymidine (1 μCi/well) was pipetted into the microcultures. After a further 16 hours, the radioactivity which had been incorporated into the proliferating T cell blasts was measured in a beta counter (Matrix 96). The results were calculated, as the arithmetic mean of the multiple samples, in counts per minute (cpm). The criterion for the quality of the TCL was the stimulation index, which was obtained by relating the cpm values with Phl p5 addition to those without Phl p5 addition.
# After a TCL had been cloned (see below), the specificity of the isolated TCCs were determined as has just been described. Stimulation indices of at least 5 were rated as being positive for the TCCs. The determination of T cell epitopes for defining the T cell-reactive regions on group 5 allergens was also carried out using specific proliferation tests, with 1-2 μg of synthesized dodecapeptide/ml being used for this purpose in each case (see below).
# The reactivity of the recombinant Ph1 p 5b mutants was tested on established T cell clones (TCCs) of known specificity. The TCCs derive from patients who are allergic to grass pollen (see Ex. 1) and are directed against the T cell-reactive regions A (FIG. 7), B (FIG. 8) and C (FIG. 9). The T cell reactivity was measured by stimulating the clones to proliferate.
# [2] = tested on: IgE antibodies of allergic patients; test: EAST inhibition test (IgE reactivity / allergenicity); format: binding, human; conditions: for IC50: read-out: Inhibition value 50% (concentration of the inhibitor at 50% inhibition); for Allergenic potency (Prel) 25%: relative to native Phl p 5b at 25% inhibition; for Allergenic potency (Prel) 50%: relative to native Phl p 5b at 50% inhibition
# Protocol: The effects of the induced mutations on the allergenicity, i.e. the ability to bind to the IgE antibodies of allergic patients, of the modified recombinant allergens is determined qualitatively and quantitatively by means of the EAST inhibition test. […] The extent of the immunochemical relatedness (cross reactivity) can also be quantified. This EAST inhibition test only takes the reaction with IgE antibodies into account.
# The binding of the allergens by the IgE antibodies is the basic prerequisite for the allergen-specific activation of the effector cells (mast cells, basophils, inter alia) in type I allergy. The allergen-specific inhibition of the enzyme/allergen sorbent test (EAST) is the best means for qualitatively and quantitatively recording the binding of the allergens to IgE anti-bodies. The EAST inhibition test is carried out as follows. Microtitre plates are coated with allergen (natural or recombinant Ph1 p 5 or Ph1 p 5b) (1 μg/ml). After the unbound allergen molecules have been removed by washing, non-specific plastic binding sites are blocked with bovine serum albumin (0.5%). […] from allergic patients, as a representative pool of 10-30 donors or as an individual serum, is incubated, in a suitable dilution, with the allergen-coated microtritre plates. The bound allergen-specific IgE antibodies are quantified using enzyme-coupled anti-IgE antibodies (e.g. alk. phosphatase-a-IgE antibodies). This binding is inhibited by soluble allergen or the substance to be tested (allergen mutants) in dependence on the concentration. The inhibition curve obtained with the purified natural allergen Ph1 p 5b is used as the reference.
# [3] = tested on: Phl p 5b-reactive T cell lines (TCLs) from allergic patients; test: Proliferative reaction of Phl p 5b-reactive oligoclonal T cell lines ([3H]-thymidine incorporation); format: cell-based, human; conditions: secondary activator 0.3 μM
# Protocol: In the second phase, oligoclonal T cell lines, which have been established by repeated stimulation with the relevant allergens, are employed for the testing. Once again, only those modified recombinant allergens which at least give rise to a stimulation index (SI) of 50% of the SI of the wild type are taken into consideration.
# as §1
# The oligoclonal T cell lines (TCLs) from 8 patients who were allergic to grass pollen (see Ex. 1) were established by repeated activation with natural Ph1 p 5b (a+b) or recombinant rPh1 p 5b or 5a+5b.
# The proliferative reaction of these TCLs was tested using the rPh1 p 5b mutants (FIG. 10).
# [4] = allergic patient serum pool Bor 18/100
# [5] = allergic patient serum pool We 6/97
# [6] = individual allergic patient serum II/3
# [7] = individual allergic patient serum II/17
molecule,measurement,setting,value
B1,Incorporation of [3H]-thymidine into TCC CB 2 (stimulation index class),[1]; T cell-reactive region A,+++ (>10 (+++))
same,Incorporation of [3H]-thymidine into TCC CB 14 (stimulation index class),[1]; T cell-reactive region A,+++ (>10 (+++))
same,Incorporation of [3H]-thymidine into TCC JR 13 (stimulation index class),[1]; T cell-reactive region A,+++ (>10 (+++))
same,Incorporation of [3H]-thymidine into TCC JR 15 (stimulation index class),[1]; T cell-reactive region A,+++ (>10 (+++))
same,Incorporation of [3H]-thymidine into TCC DW8 (stimulation index class),[1]; T cell-reactive region B,+ (1-2 (+))
same,Incorporation of [3H]-thymidine into TCC UZH2 (stimulation index class),[1]; T cell-reactive region B,+++ (>10 (+++))
same,"Incorporation of [3H]-thymidine, stimulation index SI, 1st exp.",[1]; T cell-reactive region C,8.6
same,"Incorporation of [3H]-thymidine, stimulation index SI, 2nd exp.",[1]; T cell-reactive region C,6.2
same,"Incorporation of [3H]-thymidine, stimulation index SI, 3rd exp.",[1]; T cell-reactive region C,4.4
same,"Incorporation of [3H]-thymidine, stimulation index class (last column, no head)",[1]; T cell-reactive region C,++ (5-10 (++))
same,"Allergenicity / IgE reactivity, overall assessment (in words)","[2]; all serum pools and individual sera, Prel values","marked reduction in allergenicity; also recorded: greatly reduced, it is still detectable"
same,Inhibition value 25% (concentration of the inhibitor at 25% inhibition),[2]; [4],8.6e-09 mol/L
same,IC50,[2]; [4],28 nM
same,Inhibition value 25% (concentration of the inhibitor at 25% inhibition),[2]; [5],2.3e-08 mol/L
same,IC50,[2]; [5],17000 nM
same,Inhibition value 25% (concentration of the inhibitor at 25% inhibition),[2]; [6],1.2e-08 mol/L
same,IC50,[2]; [6],17 nM
same,Inhibition value 25% (concentration of the inhibitor at 25% inhibition),[2]; individual allergic patient serum II/12,1.5e-05 mol/L
same,Inhibition value 25% (concentration of the inhibitor at 25% inhibition),[2]; [7],6.5e-09 mol/L
same,IC50,[2]; [7],2 nM
same,Allergenic potency (Prel) 25%,[2]; individual serum II/3,0.0420
same,Allergenic potency (Prel) 25%,[2]; individual serum II/12,3.4 × 10^−5
same,Allergenic potency (Prel) 25%,[2]; individual serum II/17,0.033
same,Allergenic potency (Prel) 25%,[2]; serum pool Bor 18/100,0.039
same,Allergenic potency (Prel) 25%,[2]; serum pool We 6/97,0.022
same,Allergenic potency (Prel) 50%,[2]; individual serum II/3,0.0035
same,Allergenic potency (Prel) 50%,[2]; individual serum II/12,1.0 × 10^−10
same,Allergenic potency (Prel) 50%,[2]; individual serum II/17,0.0010
same,Allergenic potency (Prel) 50%,[2]; serum pool Bor 18/100,0.0015
same,Allergenic potency (Prel) 50%,[2]; serum pool We 6/97,0.0004
same,EAST inhibition curve / inhibitory effect (in words),"[2]; serum pool Bor 18/100 (20 donors), FIG. 1",markedly decreased inhibitory effect
same,Allergenicity from EAST inhibition curves (in words),"[2]; serum pool We 6/97 and individual sera II3, II12, II17, FIGS. 2-5",greatly reduced allergenicity
same,Incorporation of [3H]-thymidine into TCL 2 Eic (stimulation index class),[3]; primary stimulator n Phl p 5,+ (1-2 (+))
same,Incorporation of [3H]-thymidine into TCL 3 Fre (stimulation index class),[3]; primary stimulator n Phl p 5,+ (1-2 (+))
same,Incorporation of [3H]-thymidine into TCL 4 Mer (stimulation index class),[3]; primary stimulator n Phl p 5,+ (1-2 (+))
same,Incorporation of [3H]-thymidine into TCL 5 17.4 (stimulation index class),[3]; primary stimulator r Phl p 5,+ (1-2 (+))
same,Incorporation of [3H]-thymidine into TCL 6 Mah (stimulation index class),"[3]; primary stimulator r Phl p 5a, r Phl p 5b",++ (5-10 (++))
same,Incorporation of [3H]-thymidine into TCL 7 19.2 (stimulation index class),[3]; primary stimulator r Phl p 5b,+++ (>10 (+++))
same,Incorporation of [3H]-thymidine into TCL 8 20.1 (stimulation index class),[3]; primary stimulator r Phl p 5b,+++ (>10 (+++))
